Columns and labels:
[1] = biological target: biotinylated CRH (human and mouse); experiment: Octet in-tandem competition on captured CRH; row = 1st mAb (control hIgG1); competitor (2nd mAb) PR302334
[2] = biological target: biotinylated CRH (human and mouse); experiment: Octet in-tandem competition on captured CRH; row = 1st mAb (control hIgG1); competitor (2nd mAb) PR303394
[3] = biological target: biotinylated CRH (human and mouse); experiment: Octet in-tandem competition on captured CRH; row = 1st mAb (control hIgG1); competitor (2nd mAb) PR302309-8
[4] = biological target: biotinylated CRH (human and mouse); experiment: Octet in-tandem competition on captured CRH; row = 1st mAb (control hIgG1); competitor (2nd mAb) PR006669
[5] = biological target: biotinylated CRH (human and mouse); experiment: Octet in-tandem competition on captured CRH; row = 1st mAb (control hIgG1); competitor (2nd mAb) PR301777
[6] = biological target: biotinylated CRH (human and mouse); experiment: Octet in-tandem competition on captured CRH; row = 1st mAb (control hIgG1); competitor (2nd mAb) PR302341-34
[7] = biological target: biotinylated CRH (human and mouse); experiment: Octet in-tandem competition on captured CRH; row = 1st mAb (control hIgG1); competitor (2nd mAb) PR005660

biotinylated CRH (human and mouse), sequence (P01143 145-185): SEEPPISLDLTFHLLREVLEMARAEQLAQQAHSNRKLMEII

% Inhibition [1]: 8%
% Inhibition [2]: 10%
% Inhibition [3]: 15%
% Inhibition [4]: 9%
% Inhibition [5]: 9%
% Inhibition [6]: 12%
% Inhibition [7]: 12%
Substance: unrelated human IgG1 (negative control) (antibody)

— US20250197490A1, “ANTI-CORTICOTROPIN-RELEASING HORMONE ANTIBODIES AND USE IN CONGENITAL ADRENAL HYPERPLASIA” (HBM ALPHA THERAPEUTICS, INC., priority 2021, published 2025)
